Results from patent US20260166139A1.
pEC50: −log10 of the molar value. “And” between values parts separate entries of the source, which are not always exact repeats. Equal values may be shown once. Values belong to the substance of their own block, whether it stands above or below them.

Assays:
murine CTLA4 (murine) [1] = target: murine CTLA4 (murine) (UniProt P09793); assay: ELISA on coated CTLA4, source Mouse (row of 8D2)
murine CTLA4 (murine) [2] = target: murine CTLA4 (murine) (UniProt P09793); assay: ELISA, coat murine CTLA4 0.5 ug/ml; antibody 1 ug/ml
murine CTLA4 (murine) [3] = target: murine CTLA4 (murine) (UniProt P09793); assay: ELISA on coated CTLA4, source Mouse (row of 8D2(Re))
murine CTLA4 (murine) [4] = target: murine CTLA4 (murine) (UniProt P09793); assay: ELISA on coated CTLA4, source Mouse (row of 8D2H1L1)
[5] = target: monkey CTLA4-hFc (monkey); assay: ELISA on coated CTLA4, source Monkey (row of 8D2H2L2)
[6] = target: monkey CTLA4-hFc (monkey); assay: ELISA on coated CTLA4, source Monkey (row of 8D2H3L3)
murine CTLA4 (murine) [7] = target: murine CTLA4 (murine) (UniProt P09793); assay: ELISA, coat murine CTLA4 0.5 ug/ml; antibody 0.1 ug/ml
murine CTLA4 (murine) [8] = target: murine CTLA4 (murine) (UniProt P09793); assay: ELISA, coat murine CTLA4 0.5 ug/ml; antibody 0.3 ug/ml
murine CTLA4 (murine) [9] = target: murine CTLA4 (murine) (UniProt P09793); assay: ELISA, coat murine CTLA4 0.5 ug/ml; antibody 0.01 ug/ml
murine CTLA4 (murine) [10] = target: murine CTLA4 (murine) (UniProt P09793); assay: ELISA, coat murine CTLA4 0.5 ug/ml; antibody 0.03 ug/ml
murine CTLA4 (murine) [11] = target: murine CTLA4 (murine) (UniProt P09793); assay: ELISA, coat murine CTLA4 0.5 ug/ml; antibody 0.001 ug/ml
murine CTLA4 (murine) [12] = target: murine CTLA4 (murine) (UniProt P09793); assay: ELISA, coat murine CTLA4 0.5 ug/ml; antibody 0.003 ug/ml
[13] = target: monkey CTLA4-hFc (monkey); assay: ELISA, coat monkey CTLA4-hFc 0.25 ug/ml; antibody 1 ug/ml
[14] = target: monkey CTLA4-hFc (monkey); assay: ELISA, coat monkey CTLA4-hFc 0.25 ug/ml; antibody 0 (blank)
murine CTLA4 (murine) [15] = target: murine CTLA4 (murine) (UniProt P09793); assay: ELISA, coat murine CTLA4 0.5 ug/ml; antibody 0 ug/ml (blank)
[16] = target: monkey CTLA4-hFc (monkey); assay: ELISA, coat monkey CTLA4-hFc 0.25 ug/ml; antibody 1:3 (start 1 ug/ml)
[17] = target: monkey CTLA4-hFc (monkey); assay: ELISA, coat monkey CTLA4-hFc 0.25 ug/ml; antibody 1:9 (start 1 ug/ml)
[18] = target: monkey CTLA4-hFc (monkey); assay: ELISA, coat monkey CTLA4-hFc 0.25 ug/ml; antibody 1:27 (start 1 ug/ml)
[19] = target: monkey CTLA4-hFc (monkey); assay: ELISA, coat monkey CTLA4-hFc 0.25 ug/ml; antibody 1:81 (start 1 ug/ml)
[20] = target: monkey CTLA4-hFc (monkey); assay: ELISA, coat monkey CTLA4-hFc 0.25 ug/ml; antibody 1:243 (start 1 ug/ml)
[21] = target: monkey CTLA4-hFc (monkey); assay: ELISA, coat monkey CTLA4-hFc 0.25 ug/ml; antibody 1:729 (start 1 ug/ml)
[22] = target: CTLA4 antigen on the surface of 293F-CTLA4 host cells (UniProt P16410); assay: flow cytometry, mean fluorescence intensity with the isotype control (unlabeled 293F bar: 3.62)
Sequence of CTLA4 antigen on the surface of 293F-CTLA4 host cells (P16410 36-223 limits assumed): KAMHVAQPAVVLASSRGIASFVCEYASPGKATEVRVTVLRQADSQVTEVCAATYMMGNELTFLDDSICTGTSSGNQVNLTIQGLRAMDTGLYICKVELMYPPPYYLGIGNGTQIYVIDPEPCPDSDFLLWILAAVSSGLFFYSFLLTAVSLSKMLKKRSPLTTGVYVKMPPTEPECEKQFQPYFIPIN

pEC50 (murine CTLA4 (murine) [1]): 10.21
absorbance at 450 nm (murine CTLA4 (murine) [2]): 3 and 2.98
pEC50 (murine CTLA4 (murine) [3]): 10.21
pEC50 (murine CTLA4 (murine) [4]): 10.21
pEC50 [5]: 9.59
pEC50 [6]: 9.59
absorbance at 450 nm (murine CTLA4 (murine) [7]): 2.43 and 2.54
absorbance at 450 nm (murine CTLA4 (murine) [8]): 2.85 and 2.9
absorbance at 450 nm (murine CTLA4 (murine) [9]): 0.673 and 0.794
absorbance at 450 nm (murine CTLA4 (murine) [10]): 1.51
absorbance at 450 nm (murine CTLA4 (murine) [11]): 0.136 and 0.142
absorbance at 450 nm (murine CTLA4 (murine) [12]): 0.292 and 0.328
absorbance at 450 nm [13]: 1.79 and 1.85
absorbance at 450 nm [14]: 0.049
absorbance at 450 nm (murine CTLA4 (murine) [15]): 0.046 and 0.05
absorbance at 450 nm [16]: 1.34
absorbance at 450 nm [17]: 0.845 and 0.868
absorbance at 450 nm [18]: 0.429 and 0.402
absorbance at 450 nm [19]: 0.19 and 0.191
absorbance at 450 nm [20]: 0.104 and 0.108
absorbance at 450 nm [21]: 0.063 and 0.067
Substance: control antibody 10D1

MFI [22]: 4.95
Substance: isotype control (antibody)
